In paper PMC6274998, “Mycobacterium tuberculosis ClpC1 N-Terminal Domain Is Dispensable for Adaptor Protein-Dependent Allosteric Regulation” (International Journal of Molecular Sciences, 2018):

Molecular target: T1, ∆NTD-ClpC1 (ClpC1 truncation mutant lacking N-terminal residues M1-Y145) (Mycobacterium tuberculosis H37Rv, UniProt P9WPC9 146-848)
T1 construct: ClpC1, M. tuberculosis H37Rv, Rv3596c, lacking N-terminal residues M1-Y145 (begins at residue 146); also called ∆NTD-ClpC1 truncation; not shown: His6-SUMO, N-terminal, cleaved
T1 sequence: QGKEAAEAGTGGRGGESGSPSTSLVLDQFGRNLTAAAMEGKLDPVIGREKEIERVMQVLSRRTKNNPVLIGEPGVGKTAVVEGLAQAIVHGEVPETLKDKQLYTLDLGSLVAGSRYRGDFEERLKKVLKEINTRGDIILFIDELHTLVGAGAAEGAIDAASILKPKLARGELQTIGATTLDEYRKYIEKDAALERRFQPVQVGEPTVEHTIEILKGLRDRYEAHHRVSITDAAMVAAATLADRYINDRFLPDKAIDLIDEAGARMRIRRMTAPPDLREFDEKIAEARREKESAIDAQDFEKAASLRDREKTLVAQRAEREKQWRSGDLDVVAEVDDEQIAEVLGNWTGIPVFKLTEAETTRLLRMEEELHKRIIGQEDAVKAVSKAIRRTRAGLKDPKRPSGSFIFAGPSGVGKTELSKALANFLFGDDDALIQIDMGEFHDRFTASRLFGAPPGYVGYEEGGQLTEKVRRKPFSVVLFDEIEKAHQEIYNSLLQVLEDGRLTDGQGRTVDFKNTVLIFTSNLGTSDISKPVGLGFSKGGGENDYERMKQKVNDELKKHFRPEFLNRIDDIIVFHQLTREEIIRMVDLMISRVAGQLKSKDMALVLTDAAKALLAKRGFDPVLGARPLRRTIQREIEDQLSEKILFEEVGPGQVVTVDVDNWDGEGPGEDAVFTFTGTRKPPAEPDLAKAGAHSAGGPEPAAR
Assay: pull-down
Conditions: both partners purified

B1: His6-SUMO-ClpS (Mycobacterium tuberculosis ClpS adaptor protein, His6-SUMO fusion) (natural protein)
chain: MAVVSAPAKPGTTWQRESAPVDVTDRAWVTIVWDDPVNLMSYVTYVFQKLFGYSEPHATKLMLQVHNEGKAVVSAGSRESMEVDVSKLHAAGLWATMQQDR
notes: also called His6-ClpS; His6-tagged ClpS; not shown: His6, N-terminal, kept; SUMO, N-terminal, kept
B1: binds.
